Source: article PMC2680971 (Journal of Molecular Biology, 2009)

B1: DC-SIGNR neck domain, 6.5 repeat polymorphic form, His2 tag (domain or fragment)
chain: KVPSSLSQEQSEQDAIYQNLTQLKAAVGELSEKSKLQEIYQELTQLKAAVGELPEKSKLQEIYQELTRLKAAVGELPEKSKLQEIYQELTRLKAAVGELPEKSKLQEIYQELTRLKAAVGELPEKSKLQEIYQELTELKAAVGELPEKSKLQEIYQELTQLKAAVE

Tests used:
[1] = molecular target: DC-SIGNR neck domain, 7.5 repeat form, His2 tag (human); experiment: SEC
SEC = molecular target: the molecule itself; experiment: SEC

Row | Molecule | stoichiometry N [1] | stoichiometry N (SEC)
1 | DC-SIGNR neck domain, 7.5 repeat form, His2 tag (domain or fragment) | 4 | –
2 | B1 | – | 4
